Measured values reported in CN113461812A (BEIJING LUFEI BIOTECHNOLOGY CO LTD, dated 2021).

What was measured:
Experiment in all cases: SPR (Biacore), 1:1 binding fit
RBD突变型(N501Y) = biological target: T1, RBD突变型(N501Y) (SARS-CoV-2, UniProt P0DTC2 319-541)
T1 construct: domain: RBD

[1] = biological target: T2, RBD突变型(K417N E484K N501Y) (SARS-CoV-2, UniProt P0DTC2 319-541)
T2 construct: domain: RBD

[2] = biological target: T3, RBD突变型(K417T E484K N501Y) (SARS-CoV-2, UniProt P0DTC2 319-541)
T3 construct: domain: RBD

B1: 人源化新冠病毒中和性抗体nCoV-00D (antibody, V domains shown)
VH: QVQLQQSGAELVKPGASVKLSCKTSGYTFTRYYIYWVKQRPGQGLEWIGEINPNNGGTNFNEKFKSKATLTVDKSSNTAYMQLSSLTSEDSAVYYCTIFITTVIARDYWGQGTLVTVSA
VL: DIVLTQSPASLAVSLGQRATISCRASESVEYSGTTLMQWFQQKPGQPPKLLIYAASNVESGVPARFSGSGSGTDFSLNIHPVEEDDVAMYFCHQSREVPWTFGGGTKLEIKR
notes: also called nCoV-00D抗体
Kd (RBD突变型(N501Y)): 0.246 pM
koff (RBD突变型(N501Y)): 9.51e-08 s⁻¹
kon (RBD突变型(N501Y)): 387000 M⁻¹ s⁻¹
Kd [1]: 7.91 pM
koff [1]: 2.35e-07 s⁻¹
kon [1]: 29700 M⁻¹ s⁻¹
Kd [2]: 0.53 pM
koff [2]: 1.98e-08 s⁻¹
kon [2]: 37400 M⁻¹ s⁻¹
